Consider 35 molecules from patent US20170240926 (published 2017).

In general, Kd refers to the equilibrium constant for the complex coming apart.

No end group written: not given here. *: point of attachment. Dansyl = CN(C)c1cccc2c(S(=O)(=O)*)cccc12

In this experiment the target is FTase (protein farnesyltransferase) (UniProt P49354).
In turn, Dansyl-TKCSVS [dansyl-TKCSVS] returned a dissociation constant Kd of 2.1 nM. In turn, Dansyl-TKCTII [dansyl-TKCTII] gave a Kd of 4.2 nM. In the case of Dansyl-TKCKIS [dansyl-TKCKIS] it was 4 nM; in that of Dansyl-TKCSFM [dansyl-TKCSFM], 10 nM.

Dansyl-TKCSLM [dansyl-TKCSLM] registered a dissociation constant Kd of 8 nM. In turn, Dansyl-TKCTLA [dansyl-TKCTLA] showed a Kd of 4.4 nM. In the case of Dansyl-TKCSIS [dansyl-TKCSIS] it was 3.4 nM; in that of Dansyl-TKCRIS [dansyl-TKCRIS], 12 nM. The figure for Dansyl-TKCCIL (cysteine pairing not given here) [dansyl-TKCCIL] is 300 nM.

With Dansyl-TKCNLT [dansyl-TKCNLT], the Kd turned out to be 3.7 nM. This Kd is about 81-fold lower than that of the molecule before. Molecule Dansyl-TKCNLQ [dansyl-TKCNLQ] came in with a dissociation constant (Kd) of 8 nM. On to Dansyl-TKCYPD [dansyl-TKCYPD], for which the Kd came to 3.3 nM. Against the preceding molecule, the Kd is about 2.4-fold lower.

For the molecule Dansyl-TKCFLS [dansyl-TKCFLS], binding was characterised by a dissociation constant (Kd) of 19 nM.

Regarding Dansyl-TKCLVM [dansyl-TKCLVM], binding was characterised by a dissociation constant (Kd) of 6 nM. Dansyl-TKCSLC (cysteine pairing not given here) [dansyl-TKCSLC]: the Kd came out at 5 nM. In the case of Dansyl-TKCYVM [dansyl-TKCYVM] it was 12 nM; in that of Dansyl-TKCLLM [dansyl-TKCLLM], 4.7 nM.

Dansyl-TKCVLA [dansyl-TKCVLA] came in with a Kd of 4.6 nM. In the case of Dansyl-TKCNIM [dansyl-TKCNIM] it was 5 nM. The figure for Dansyl-TKCTLM [dansyl-TKCTLM] is 5.2 nM; for Dansyl-TKCTMS [dansyl-TKCTMS] it is 6 nM; for Dansyl-TKCTKF [dansyl-TKCTKF] it is 6 nM. In the case of Dansyl-TKCSIM [dansyl-TKCSIM] it was 6 nM; in that of Dansyl-TKCGIM [dansyl-TKCGIM], 3.6 nM; in that of Dansyl-TKCAVQ [dansyl-TKCAVQ], 13 nM. On to Dansyl-TKCTLQ [dansyl-TKCTLQ], for which the dissociation constant (Kd) was determined as 7 nM. In the case of Dansyl-TKCVVT [dansyl-TKCVVT] it was 7 nM; in that of Dansyl-TKCVLH [dansyl-TKCVLH], 14 nM; in that of Dansyl-TKCIVA [dansyl-TKCIVA], 5 nM. In the case of Dansyl-TKCLIT [dansyl-TKCLIT] it was 4.1 nM; in that of Dansyl-TKCITQ [dansyl-TKCITQ], 3.6 nM; in that of Dansyl-TKCLTS [dansyl-TKCLTS], 5 nM. In the case of Dansyl-TKCKIF [dansyl-TKCKIF] it was 2.5 nM; in that of Dansyl-TKCCIF (cysteine pairing not given here) [dansyl-TKCCIF], 270 nM; in that of Dansyl-TKCSLG [dansyl-TKCSLG], 3.4 nM.
